Reference: the DeepSol protein solubility set

Experiment: soluble on expression in E. coli; label from the status in PepcDB or PDB records

Sequence	soluble on expression in E. coli
MYKWLLSVLLVLMSTVVHAADCFDLAGRDYKIDPDLLRAISWKESRNRANAVGINPVTGYGSGLMQVDSQHFNELARYGIKPEQLVSDPCLNIYTGAYYLAIAFRKWGVSWTAVGAYNAGFKKTPLQDARRLDYATDVHRIWIAIKQSKTRQTPAR	not soluble
MAHHHHHHMHPYLFICKEGNNNNGSTTNLKSGMSLSDRRHTPLGRNLSESTELSQSLSSRSGGSSPIPRPNLDDITRRLLEENEGMLFEINKLTRELTDERAKVSGLHETLAERSAELELMKEKLSDATVVATDDTGKPINYKRECDGLAADNNRLVKEYERVCTELEKRTEEIRREMGDQRDEAEGKTISVQVEQFNREITALVPTVEHIVNSLKRCVVTGGIAEERILENAQKELHTMRRITDTVRRMNAGDETCVKGLLTQIQKGEQLTAPGDVAVVIRWMVVRAFEAGLQSAEGNLRTLVDILNNSKGRYTSENATTGSGEVPASGISVRQMFRLLKM	not soluble
KLSSSEKNAILNAVSWYDADAEKVVKGTTKLAGDKLKELLAYLGCKEKELGDYGYFATEKKGEYLEYETESNLRDTENVPLKEAIYTYFLREVKPHVGEAWINLDATKIGYEISFNKYFYKHKPLRSIEDVTADILALEKESDGLIAEILGL	not soluble
AQVSNGSNSGQMEEINTKEVAQRITTELKRYSIPQAIFAQRVLCRSQGTLSDLLRNPKPWSKLKSGRETFRRMWKWLQEPEFQRMSALRLAACKRKEQEHGKDRGNT	soluble
MSLTKDDQKELGKTLWAIADQLRGSMNADDFRDYMLSFLFLRYLSDNYEAAAKKELGSDYPDAKTIGNSDKTPLSVWYASNPGDVAAFEQQMRRKAHYVIKPKYLWGNIVNLAKKQNHDLLDTLQQGFKHIEEDSFESEFQGLFSEINLASDKLGRKYDDRNAKLCSIISEIARGMALSAKTDSLGDAYEYLIGQFAAGSGKKAGEFYTPQEISNILSAIVTLDSQEPKTGPRGKLDSVFDFACGSGSLLLNIRNRMTNSGGSIGKIYGQEYNVTTYNLARMNMLLHGVKDTEFEIYHGDTLKNDWDWLRETNPAKKPRFDAVVANPPFSYRWEPGEAMAQDARFKNHGVAPKSAADFAFLLHGLQYLKDDGVMAIILPHGVLFRGGKEADIRRKLLDDGHIDTVIGLPANLFYSTGIPVCILVLKKCKKPDDVLFINAAGHFAKGKRQNQLTDEHIQRIVNTYQNRNKQDRYSRCVSMKEIADKDYNLNISRYVSTAEADKEIVLEAVHADLTAIESRLEESKKRHNAFLVELGLKPLPEGHHHHHH	soluble
TDPDCDRVGIVVKDSSGEYVVLNGNQVGSLLVRYILESLVEENKLPKNNPTIIKTIVTSELGAKIAKAYNVDCLNTLTGFKFIGEKIKAFEESNDRSFIMGYEESYGYLIGTHARDKDGVVSSLMICEMAAYYSSKGMNLYEALIDTYNKFGY	not soluble
METAWSNILNYKNVSDRYILTEKDKKGAFTRQYFEVYEARLKELKPRILENAEREIGKGKFTHSQLSDAKQDEEIFVVGVIVKRIAARPSILKSLLNEDKVAYDDYEEDAEEDEVKRYAGSIEDRIELESDKQTVRLEGNISMDECATGCCVGVLGKLGKEGVFHVNRLVWPSVKVPKKVAVDGTIAFVSGLDLTGDLEDDRLTISGLEFMADWMNVQVGNENQCPPIDRLVVIGPLVETKSNGCDVQSVVRTLTLSRAEKHSSTASLITVDKIINSIAEKPLVNTVDVTPGVGDPCSSMWPLPPIHRVCLPRCGMSDKKVNLVTNPYEFEVNGLRVMTMSGENVSELLRTSLKWTGADAIENIIKWQHVAPNCPDTLDAFPVAERDPLIMDITPHVIICGNQPHAEFRHIPIDGSNCLVVCLPKFSKTRVACFLNLSDLSLKWQNFDHQF	not soluble
MMRLANGIVLDKDTTFGELKFSALRREVRIQNEDGSVSDEIKERTYDLKSKGQGRMIQVSIPASVPLKEFDYNARVELINPIADTVATATYQGADVDWYIKADDIVLTKDSLEHHHHHH	not soluble
MTWQPFYVGTGQAPAGAEEQVVLPPAPPWREFPRRSQHRQFVPPPRLAEAVNAALALRRPLLVTGPAGSGKSTVIEQVAAELALGDVLRWHITSRSSLAEALYRYDALGRIHAQRLEGPGGSDDIAPFLRMGPLGTALLPSARPRALLIDEIDKSDLDLPSDLLDVLERGEFEIPELARYGTDVVPVREHGGERTHLIARGRVQCAEFPFIVMTSNGDRDFPAAFLRRCIRFTMPLPTPETLLRVVEAHMGPEKAAADETGRLITVFLERLTAGESLAVDQLLNAVHLLTGDGAPGDDRRQAIAELILRELSHALEHHHHHH	not soluble
